# Laboratory results reported in IntAct's records for PubMed 25910212.
# B1: EF-hand domain-containing protein 1 (Homo sapiens), Q5JVL4 (parent)
# chain: MVSNPVHGLPFLPGTSFKDSTKTAFHRSQTLSYRNGYAIVRRPTVGIGGDRLQFNQLSQAELDELASKAPVLTYGQPKQAPPADFIPAHVAFDKKVLKFDAYFQEDVPMSTEEQYRIRQVNIYYYLEDDSMSVIEPVVENSGILQGKLIKRQRLAKNDRGDHYHWKDLNRGINITIYGKTFRVVDCDQFTQVFLESQGIELNPPEKMALDPYTELRKQPLRKYVTPSDFDQLKQFLTFDKQVLRFYAIWDDTDSMYGECRTYIIHYYLMDDTVEIREVHERNDGRDPFPLLMNRQRVPKVLVENAKNFPQCVLEISDQEVLEWYTAKDFIVGKSLTILGRTFFIYDCDPFTRRYYKEKFGITDLPRIDVSKREPPPVKQELPPYNGFGLVEDSAQNCFALIPKAPKKDVIKMLVNDNKVLRYLAVLESPIPEDKDRRFVFSYFLATDMISIFEPPVRNSGIIGGKYLGRTKVVKPYSTVDNPVYYGPSDFFIGAVIEVFGHRFIILDTDEYVLKYMESNAAQYSPEALASIQNHVRKREAPAPEAESKQTEKDPGVQELEALIDTIQKQLKDHSCKDNIREAFQIYDKEASGYVDRDMFFKICESLNVPVDDSLVKELIRMCSHGEGKINYYNFVRAFSN
# partner: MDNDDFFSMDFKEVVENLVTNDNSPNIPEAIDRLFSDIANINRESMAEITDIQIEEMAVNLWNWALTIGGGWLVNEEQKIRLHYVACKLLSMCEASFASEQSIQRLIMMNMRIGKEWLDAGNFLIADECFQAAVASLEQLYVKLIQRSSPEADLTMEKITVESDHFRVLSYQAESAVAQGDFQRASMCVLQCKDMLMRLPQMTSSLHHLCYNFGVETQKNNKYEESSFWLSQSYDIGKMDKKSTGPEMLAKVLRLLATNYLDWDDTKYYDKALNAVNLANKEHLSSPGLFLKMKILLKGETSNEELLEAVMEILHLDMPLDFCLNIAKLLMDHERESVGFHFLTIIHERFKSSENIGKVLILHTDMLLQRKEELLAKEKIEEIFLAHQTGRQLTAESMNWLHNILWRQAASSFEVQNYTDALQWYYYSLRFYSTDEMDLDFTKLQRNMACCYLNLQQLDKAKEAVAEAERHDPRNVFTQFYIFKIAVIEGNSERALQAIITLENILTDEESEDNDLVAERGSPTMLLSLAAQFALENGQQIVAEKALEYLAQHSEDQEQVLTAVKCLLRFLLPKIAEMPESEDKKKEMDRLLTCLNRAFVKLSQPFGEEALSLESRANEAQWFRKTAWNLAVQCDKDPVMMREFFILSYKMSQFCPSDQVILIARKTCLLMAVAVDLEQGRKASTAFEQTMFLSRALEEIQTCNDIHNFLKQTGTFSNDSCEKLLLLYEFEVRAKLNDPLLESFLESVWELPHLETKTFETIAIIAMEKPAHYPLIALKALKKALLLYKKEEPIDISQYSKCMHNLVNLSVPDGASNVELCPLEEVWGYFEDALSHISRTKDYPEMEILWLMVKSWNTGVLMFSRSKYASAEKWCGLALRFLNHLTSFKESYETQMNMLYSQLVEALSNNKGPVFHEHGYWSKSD
# B2: EF-hand domain-containing protein 1 (Homo sapiens), Q5JVL4 (parent)
# chain: B1 chain
# partner: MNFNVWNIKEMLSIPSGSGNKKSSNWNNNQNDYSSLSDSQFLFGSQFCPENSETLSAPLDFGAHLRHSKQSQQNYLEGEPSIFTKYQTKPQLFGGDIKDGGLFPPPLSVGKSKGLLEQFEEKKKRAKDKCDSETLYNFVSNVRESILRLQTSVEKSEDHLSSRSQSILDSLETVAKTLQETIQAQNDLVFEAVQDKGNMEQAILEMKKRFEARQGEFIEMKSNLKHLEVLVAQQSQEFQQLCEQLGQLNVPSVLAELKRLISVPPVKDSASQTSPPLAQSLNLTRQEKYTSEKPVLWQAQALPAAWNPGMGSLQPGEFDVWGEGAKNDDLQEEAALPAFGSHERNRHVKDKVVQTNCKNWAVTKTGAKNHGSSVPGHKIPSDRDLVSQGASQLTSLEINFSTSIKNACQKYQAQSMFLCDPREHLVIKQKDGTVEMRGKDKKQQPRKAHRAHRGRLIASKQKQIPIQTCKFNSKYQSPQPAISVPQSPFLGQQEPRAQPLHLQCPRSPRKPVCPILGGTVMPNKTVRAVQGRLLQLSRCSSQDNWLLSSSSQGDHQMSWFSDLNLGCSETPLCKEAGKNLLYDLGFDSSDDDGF
# B3: N-chimaerin (Homo sapiens), P15882 (parent)
# chain: MALTLFDTDEYRPPVWKSYLYQLQQEAPHPRRITCTCEVENRPKYYGREFHGMISREAADQLLIVAEGSYLIRESQRQPGTYTLALRFGSQTRNFRLYYDGKHFVGEKRFESIHDLVTDGLITLYIETKAAEYIAKMTINPIYEHVGYTTLNREPAYKKHMPVLKETHDERDSTGQDGVSEKRLTSLVRRATLKENEQIPKYEKIHNFKVHTFRGPHWCEYCANFMWGLIAQGVKCADCGLNVHKQCSKMVPNDCKPDLKHVKKVYSCDLTTLVKAHTTKRPMVVDMCIREIESRGLNSEGLYRVSGFSDLIEDVKMAFDRDGEKADISVNMYEDINIITGALKLYFRDLPIPLITYDAYPKFIESAKIMDPDEQLETLHEALKLLPPAHCETLRYLMAHLKRVTLHEKENLMNAENLGIVFGPTLMRSPELDAMAALNDIRYQRLVVELLIKNEDILF
# B4: Multifunctional procollagen lysine hydroxylase and glycosyltransferase LH3 (Homo sapiens), O60568 (parent)
# chain: MTSSGPGPRFLLLLPLLLPPAASASDRPRGRDPVNPEKLLVITVATAETEGYLRFLRSAEFFNYTVRTLGLGEEWRGGDVARTVGGGQKVRWLKKEMEKYADREDMIIMFVDSYDVILAGSPTELLKKFVQSGSRLLFSAESFCWPEWGLAEQYPEVGTGKRFLNSGGFIGFATTIHQIVRQWKYKDDDDDQLFYTRLYLDPGLREKLSLNLDHKSRIFQNLNGALDEVVLKFDRNRVRIRNVAYDTLPIVVHGNGPTKLQLNYLGNYVPNGWTPEGGCGFCNQDRRTLPGGQPPPRVFLAVFVEQPTPFLPRFLQRLLLLDYPPDRVTLFLHNNEVFHEPHIADSWPQLQDHFSAVKLVGPEEALSPGEARDMAMDLCRQDPECEFYFSLDADAVLTNLQTLRILIEENRKVIAPMLSRHGKLWSNFWGALSPDEYYARSEDYVELVQRKRVGVWNVPYISQAYVIRGDTLRMELPQRDVFSGSDTDPDMAFCKSFRDKGIFLHLSNQHEFGRLLATSRYDTEHLHPDLWQIFDNPVDWKEQYIHENYSRALEGEGIVEQPCPDVYWFPLLSEQMCDELVAEMEHYGQWSGGRHEDSRLAGGYENVPTVDIHMKQVGYEDQWLQLLRTYVGPMTESLFPGYHTKARAVMNFVVRYRPDEQPSLRPHHDSSTFTLNVALNHKGLDYEGGGCRFLRYDCVISSPRKGWALLHPGRLTHYHEGLPTTWGTRYIMVSFVDP
# B5: Estrogen receptor beta (Homo sapiens), Q92731-3 (parent)
# chain: MDIKNSPSSLNSPSSYNCSQSILPLEHGSIYIPSSYVDSHHEYPAMTFYSPAVMNYSIPSNVTNLEGGPGRQTTSPNVLWPTPGHLSPLVVHRQLSHLYAEPQKSPWCEARSLEHTLPVNRETLKRKVSGNRCASPVTGPGSKRDAHFCAVCSDYASGYHYGVWSCEGCKAFFKRSIQGHNDYICPATNQCTIDKNRRKSCQACRLRKCYEVGMVKCGSRRERCGYRLVRRQRSADEQLHCAGKAKRSGGHAPRVRELLLDALSPEQLVLTLLEAEPPHVLISRPSAPFTEASMMMSLTKLADKELVHMISWAKKIPGMRGNA
# B6: Alpha-sarcoglycan (Homo sapiens), Q16586 (parent)
# chain: MAETLFWTPLLVVLLAGLGDTEAQQTTLHPLVGRVFVHTLDHETFLSLPEHVAVPPAVHITYHAHLQGHPDLPRWLRYTQRSPHHPGFLYGSATPEDRGLQVIEVTAYNRDSFDTTRQRLVLEIGDPEGPLLPYQAEFLVRSHDAEEVLPSTPASRFLSALGGLWEPGELQLLNVTSALDRGGRVPLPIEGRKEGVYIKVGSASPFSTCLKMVASPDSHARCAQGQPPLLSCYDTLAPHFRVDWCNVTLVDKSVPEPADEVPTPGDGILEHDPFFCPPTEAPDRDFLVDALVTLLVPLLVALLLTLLLAYVMCCRREGRLKRDLATSDIQMVHHCTIHGNTEELRQMAASREVPRPLSTLPMFNVHTGERLPPRVDSAQVPLILDQH
# B7: B-cell antigen receptor complex-associated protein beta chain (Homo sapiens), P40259 (parent)
# chain: MARLALSPVPSHWMVALLLLLSAEPVPAARSEDRYRNPKGSACSRIWQSPRFIARKRGFTVKMHCYMNSASGNVSWLWKQEMDENPQQLKLEKGRMEESQNESLATLTIQGIRFEDNGIYFCQQKCNNTSEVYQGCGTELRVMGFSTLAQLKQRNTLKDGIIMIQTLLIILFIIVPIFLLLDKDDSKAGMEEDHTYEGLDIDQTATYEDIVTLRTGEVKWSVGEHPGQE
# B8: Sodium/myo-inositol cotransporter 2 (Homo sapiens), Q8WWX8-3 (parent)
# chain: MVWWPVGASLFASNVGSGHFIGLAGSGAATGISVSAYELNGLFSVLMLAWIFLPIYIAGQVTTMPEYLRKRFGGIRIPIILAVLYLFIYIFTKISVDMYAGAIFIQQSLHLDLYLAIVGLLAITAVYTVAGGLAAVIYTDALQTLIMLIGALTLMGYSFAAVGGMEGLKEKYFLALASNRSENSSCGLPREDAFHIFRDPLTSDLPWPGVLFGMSIPSLWYWCTDQVIVQRTLAAKNLSHAKGGALMAAYLKVLPLFIMVFPGMVSRILFPDQVACADPEICQKICSNPSGCSDIAYPKLVLELLPTGLRGLMMAVMVAALMSSLTSIFNSASTIFTMDLWNHLRPRASEKELMIVGRVFVLLLVLVSILWIPVVQASQGGQLFIYIQSISSYLQPPVAVVFIMGCFWKRTNEKGAFWGLISGLLLGLVRLVLDFIYVQPRCDQPDERPVLVKSIHYLYFSMILSTVTLITVSTVSWFTEPPSKEMVSHLTWFTRHDPVVQKEQAPPAAPLSLTLSQNGMPEASSSSSVQFEMVQENTSKTHSCDMTPKQSKVVKAILWLCGIQEKGKEELPARAEAIIVSLEENPLVKTLLDVNLIFCVSCAIFIWGYFA
# B9: Apolipoprotein D (Homo sapiens), P05090 (parent)
# chain: MVMLLLLLSALAGLFGAAEGQAFHLGKCPNPPVQENFDVNKYLGRWYEIEKIPTTFENGRCIQANYSLMENGKIKVLNQELRADGTVNQIEGEATPVNLTEPAKLEVKFSWFMPSAPYWILATDYENYALVYSCTCIIQLFHVDFAWILARNPNLPPETVDSLKNILTSNNIDVKKMTVTDQVNCPKLS
# partner: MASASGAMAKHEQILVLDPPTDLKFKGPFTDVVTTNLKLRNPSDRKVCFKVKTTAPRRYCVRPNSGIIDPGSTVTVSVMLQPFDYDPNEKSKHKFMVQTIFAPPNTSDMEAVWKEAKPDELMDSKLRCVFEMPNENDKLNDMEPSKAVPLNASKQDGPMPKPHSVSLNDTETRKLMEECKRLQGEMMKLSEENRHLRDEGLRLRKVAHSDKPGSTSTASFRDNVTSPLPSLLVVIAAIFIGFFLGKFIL
# B10: Lipopolysaccharide-induced tumor necrosis factor-alpha factor (Homo sapiens), Q99732 (parent)
# chain: MSVPGPYQAATGPSSAPSAPPSYEETVAVNSYYPTPPAPMPGPTTGLVTGPDGKGMNPPSYYTQPAPIPNNNPITVQTVYVQHPITFLDRPIQMCCPSCNKMIVSQLSYNAGALTWLSCGSLCLLGCIAGCCFIPFCVDALQDVDHYCPNCRALLGTYKRL
# partner: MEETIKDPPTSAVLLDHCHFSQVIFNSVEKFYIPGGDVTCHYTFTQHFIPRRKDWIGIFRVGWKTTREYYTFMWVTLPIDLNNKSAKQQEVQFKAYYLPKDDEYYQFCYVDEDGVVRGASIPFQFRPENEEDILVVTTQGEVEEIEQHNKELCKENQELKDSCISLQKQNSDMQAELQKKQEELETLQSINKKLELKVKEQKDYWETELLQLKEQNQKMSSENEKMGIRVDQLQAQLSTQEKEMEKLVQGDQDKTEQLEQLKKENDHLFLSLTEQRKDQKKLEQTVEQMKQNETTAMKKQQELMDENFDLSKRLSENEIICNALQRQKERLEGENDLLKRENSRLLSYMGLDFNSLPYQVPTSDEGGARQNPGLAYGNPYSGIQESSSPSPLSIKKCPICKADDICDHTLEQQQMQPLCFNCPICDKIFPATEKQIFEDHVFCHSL
# Variants of: B1
# Details: with TEX11, Q8IYF3-3
row,effect of a mutation on the interaction,Variant
1,disrupting interaction strength,A394S
2,with no effect,M448T

# Variants of: B2
# Details: with iho1_human IHO1, Q8IYA8
row,effect of a mutation on the interaction,Variant
1,disrupting interaction strength,P77T
2,disrupting interaction strength,R221H
3,with no effect,R159W
4,with no effect,M448T
5,disrupting interaction strength,T508R
6,disrupting interaction strength,A394S

# Variants of: B3
# Details: with nck2_human NCK2, O43639
# Chain of nck2_human NCK2, O43639 (O43639 whole entry): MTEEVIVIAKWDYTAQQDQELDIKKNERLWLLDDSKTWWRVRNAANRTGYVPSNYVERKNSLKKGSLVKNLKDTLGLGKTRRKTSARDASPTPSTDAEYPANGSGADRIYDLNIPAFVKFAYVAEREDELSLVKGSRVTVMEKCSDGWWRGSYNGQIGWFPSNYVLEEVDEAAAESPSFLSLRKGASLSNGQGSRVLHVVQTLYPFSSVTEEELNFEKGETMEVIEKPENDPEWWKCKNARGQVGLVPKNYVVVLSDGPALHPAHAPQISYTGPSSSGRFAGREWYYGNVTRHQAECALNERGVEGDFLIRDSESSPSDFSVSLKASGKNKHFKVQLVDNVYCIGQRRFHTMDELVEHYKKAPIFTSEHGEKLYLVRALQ
row,effect of a mutation on the interaction,Variant
1,with no effect,G228S
2,with no effect,A223V
3,with no effect,L20F
4,with no effect,P252Q

# Variants of: B4
# Details: with ehmt2_human EHMT2, Q96KQ7
# Chain of ehmt2_human EHMT2, Q96KQ7 (Q96KQ7 whole entry): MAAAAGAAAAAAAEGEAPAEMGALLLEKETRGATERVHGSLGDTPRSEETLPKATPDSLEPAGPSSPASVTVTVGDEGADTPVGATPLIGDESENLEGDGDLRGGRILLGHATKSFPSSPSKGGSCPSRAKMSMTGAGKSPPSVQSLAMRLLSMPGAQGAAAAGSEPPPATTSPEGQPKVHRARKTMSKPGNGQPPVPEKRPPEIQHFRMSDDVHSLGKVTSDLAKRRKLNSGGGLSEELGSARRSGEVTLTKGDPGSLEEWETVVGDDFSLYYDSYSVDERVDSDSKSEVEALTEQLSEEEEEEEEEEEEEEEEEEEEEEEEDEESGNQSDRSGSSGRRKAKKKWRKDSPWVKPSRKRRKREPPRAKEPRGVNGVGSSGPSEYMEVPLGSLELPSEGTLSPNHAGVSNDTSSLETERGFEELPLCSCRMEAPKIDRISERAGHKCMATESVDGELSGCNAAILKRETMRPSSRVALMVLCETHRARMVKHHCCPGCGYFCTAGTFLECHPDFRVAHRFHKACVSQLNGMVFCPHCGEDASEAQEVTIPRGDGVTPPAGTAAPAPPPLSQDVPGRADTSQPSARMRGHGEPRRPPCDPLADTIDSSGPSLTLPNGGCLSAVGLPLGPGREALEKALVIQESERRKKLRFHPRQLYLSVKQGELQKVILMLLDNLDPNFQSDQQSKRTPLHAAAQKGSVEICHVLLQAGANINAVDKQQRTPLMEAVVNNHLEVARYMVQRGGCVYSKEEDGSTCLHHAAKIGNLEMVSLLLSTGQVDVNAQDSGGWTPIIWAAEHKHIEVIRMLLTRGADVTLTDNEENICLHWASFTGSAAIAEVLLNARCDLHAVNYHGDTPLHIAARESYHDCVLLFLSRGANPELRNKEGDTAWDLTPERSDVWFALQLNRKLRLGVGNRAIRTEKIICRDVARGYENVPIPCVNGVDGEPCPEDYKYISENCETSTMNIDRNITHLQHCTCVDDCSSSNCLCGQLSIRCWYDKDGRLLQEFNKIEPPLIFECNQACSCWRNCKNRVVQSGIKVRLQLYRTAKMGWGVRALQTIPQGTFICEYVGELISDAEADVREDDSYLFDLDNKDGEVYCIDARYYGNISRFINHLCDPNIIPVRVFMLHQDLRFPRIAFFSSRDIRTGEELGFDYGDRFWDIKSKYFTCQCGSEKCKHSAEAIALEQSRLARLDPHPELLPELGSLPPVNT
row,effect of a mutation on the interaction,Variant
1,with no effect,N223S

# Variants of: B5
# Details: with tfcp2_human TFCP2, Q12800
# Chain of tfcp2_human TFCP2, Q12800 (Q12800 whole entry): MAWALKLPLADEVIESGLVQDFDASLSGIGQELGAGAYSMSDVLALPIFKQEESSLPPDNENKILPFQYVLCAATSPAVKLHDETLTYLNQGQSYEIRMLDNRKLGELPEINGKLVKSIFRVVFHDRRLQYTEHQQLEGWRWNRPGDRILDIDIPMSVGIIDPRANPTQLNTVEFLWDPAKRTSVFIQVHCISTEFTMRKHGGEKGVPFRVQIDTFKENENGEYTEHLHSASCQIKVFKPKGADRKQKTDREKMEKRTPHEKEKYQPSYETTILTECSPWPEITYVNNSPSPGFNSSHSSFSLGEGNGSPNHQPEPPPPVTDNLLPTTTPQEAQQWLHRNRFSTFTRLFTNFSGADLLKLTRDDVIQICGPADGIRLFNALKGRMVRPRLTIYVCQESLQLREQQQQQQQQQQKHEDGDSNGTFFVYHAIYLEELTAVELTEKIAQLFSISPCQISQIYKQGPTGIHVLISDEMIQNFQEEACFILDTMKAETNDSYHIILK
row,effect of a mutation on the interaction,Variant
1,causing an interaction,F289L

# Variants of: B5
# Details: with mdfi_human MDFI
row,effect of a mutation on the interaction,Variant
1,causing an interaction,F289L

# Variants of: B6
# Details: with sgta_human SGTA
# Target sequence in this assay (O43765 whole entry): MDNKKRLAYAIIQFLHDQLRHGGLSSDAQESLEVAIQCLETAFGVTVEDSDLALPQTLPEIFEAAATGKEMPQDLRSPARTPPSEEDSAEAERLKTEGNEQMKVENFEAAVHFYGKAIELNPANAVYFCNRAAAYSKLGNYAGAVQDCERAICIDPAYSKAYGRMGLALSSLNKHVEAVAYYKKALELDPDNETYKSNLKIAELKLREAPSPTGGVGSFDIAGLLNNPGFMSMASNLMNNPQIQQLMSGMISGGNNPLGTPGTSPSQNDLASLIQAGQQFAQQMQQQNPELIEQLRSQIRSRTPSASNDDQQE
row,effect of a mutation on the interaction,Variant
1,with no effect,R98H
2,with no effect,M312R
3,with no effect,T208I

# Variants of: B7
# Details: with sgta_human SGTA
# Target sequence in this assay (O43765 whole entry): as above
row,effect of a mutation on the interaction,Variant
1,disrupting interaction strength,G137S

# Variants of: B8
# Details: with ima4_human KPNA3, O00505
# Chain of ima4_human KPNA3, O00505 (O00505 whole entry): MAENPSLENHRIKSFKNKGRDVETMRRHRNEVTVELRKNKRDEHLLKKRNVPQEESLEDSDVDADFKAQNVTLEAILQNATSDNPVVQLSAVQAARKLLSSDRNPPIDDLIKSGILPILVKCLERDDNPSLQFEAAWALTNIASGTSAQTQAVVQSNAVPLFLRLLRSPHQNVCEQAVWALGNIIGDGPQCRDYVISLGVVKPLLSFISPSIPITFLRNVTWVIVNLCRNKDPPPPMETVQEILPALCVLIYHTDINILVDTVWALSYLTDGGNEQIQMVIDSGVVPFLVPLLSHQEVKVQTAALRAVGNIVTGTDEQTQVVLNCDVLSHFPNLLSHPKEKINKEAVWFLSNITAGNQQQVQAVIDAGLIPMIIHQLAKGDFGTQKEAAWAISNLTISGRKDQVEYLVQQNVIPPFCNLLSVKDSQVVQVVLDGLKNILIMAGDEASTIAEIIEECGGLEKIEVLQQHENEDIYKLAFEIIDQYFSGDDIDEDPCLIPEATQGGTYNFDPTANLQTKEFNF
row,effect of a mutation on the interaction,Variant
1,with no effect,V118A

# Variants of: B9
# Details: with vapa_human VAPA
row,effect of a mutation on the interaction,Variant
1,with no effect,F56V

# Variants of: B10
# Details: with caco2_human CALCOCO2, Q13137
row,effect of a mutation on the interaction,Variant
1,disrupting interaction strength,G112S
2,disrupting interaction strength,A111G
